Experimental data reported in paper PMC6120983, “Chimeric Proteins Containing MAP-1 and Functional Domains of C4b-Binding Protein Reveal Strong Complement Inhibitory Capacities” (Frontiers in Immunology, 2018).
Like-named read-outs stand apart in the source and are kept apart here. Blank lines part the entries; values can stand above or below the molecule they belong to.

B1: recombinant MAP-1 (natural protein, human, UniProt P48740-3 20-380, looked up)
chain: HTVELNNMFGQIQSPGYPDSYPSDSEVTWNITVPDGFRIKLYFMHFNLESSYLCEYDYVKVETEDQVLATFCGRETTDTEQTPGQEVVLSPGSFMSITFRSDFSNEERFTGFDAHYMAVDVDECKEREDEELSCDHYCHNYIGGYYCSCRFGYILHTDNRTCRVECSDNLFTQRTGVITSPDFPNPYPKSSECLYTIELEEGFMVNLQFEDIFDIEDHPEVPCPYDYIKIKVGPKVLGPFCGEKAPEPISTQSHSVLILFHSDNSGENRGWRLSYRAAGNECPELQPPVHGKIEPSQAKYFFKDQVLVSCDTGYKVLKDNVEMDTFQIECLKDGTWSNKIPTCKKNEIDLESELKSEQVTE
B2: C4BP^1−5:MAP-1 (other)
chain: NCGPPPTLSFAAPMDITLTETRFKTGTTLKYTCLPGYVRSHSTQTLTCNSDGEWVYNTFCIYKRCRHPGELRNGQVEIKTDLSFGSQIEFSCSEGFFLIGSTTSRCEVQDRGVGWSHPLPQCEIVKCKPPPDIRNGRHSGEENFYAYGFSVTYSCDPRFSLLGHASISCTVENETIGVWRPSPPTCEKITCRKPDVSHGEMVSGFGPIYNYKDTIVFKCQKGFVLRGSSVIHCDADSKWNPSPPACEPNSCINLPDIPHASWETYPRPTKEDVYVVGTVLRYRCHPGYKPTTDEPTTVICQKNLRWTPYQGCEAHTVELNNMFGQIQSPGYPDSYPSDSEVTWNITVPDGFRIKLYFMHFNLESSYLCEYDYVKVETEDQVLATFCGRETTDTEQTPGQEVVLSPGSFMSITFRSDFSNEERFTGFDAHYMAVDVDECKEREDEELSCDHYCHNYIGGYYCSCRFGYILHTDNRTCRVECSDNLFTQRTGVITSPDFPNPYPKSSECLYTIELEEGFMVNLQFEDIFDIEDHPEVPCPYDYIKIKVGPKVLGPFCGEKAPEPISTQSHSVLILFHSDNSGENRGWRLSYRAAGNECPELQPPVHGKIEPSQAKYFFKDQVLVSCDTGYKVLKDNVEMDTFQIECLKDGTWSNKIPTCKKNEIDLESELKSEQVTE
B3: C4BP^1−5:MAP-1 (other)
chain: B2 chain
modifications: (Gly4Ser)3 linker between C4BP CCP1-5 and MAP-1 left out of the pieces; CCP1-5 limits from Sushi 1-5 features; MAP-1 (MAp44, NM_001031849.2) is the 380-aa MASP1 isoform, signal peptide 1-19 removed …

Tests used:
recombinant MBL [1] = biological target: T1, recombinant MBL (UniProt P11226 21-248); experiment: ELISA; rMBL or rCL-11 (2 μg/ml) held on mannan-coated wells; serial dilutions of the proteins from 13.5 nM in TBS/Tween/Ca^2+ (5 mM CaCl2), 2 h; detected with biotinylated anti-MASP-1/-3/MAP-1 mAb 8B3; Kd = concentration at half of the maximum binding, fit specific binding with Hill slope, Bmax shared
recombinant CL-11 = biological target: T2, recombinant CL-11 (UniProt Q9BWP8 26-271); experiment: as above
T2 construct: collectin-11 (CL-11, CL-K1); Held on mannan-coated wells in the ELISA; also called rCL-11; collectin-11; source: produced in house

recombinant MBL [2] = biological target: T1, recombinant MBL
MAP-1:C4BP^1−5 (human) = MAP-1:C4BP^1−5 (human) (UniProt P48740); experiment: SEC; 50 μg on Superdex 200 HR 10/30, 0.5 ml/min, TBS/Ca^2+ (5 mM CaCl2); fractions checked by sandwich ELISA (anti-C4BP capture, anti-MAP-1 detection)
recombinant MBL [3] = biological target: T1, recombinant MBL; experiment: cell-based or functional assay
C4BP^1−5:MAP-1 = biological target: B2; experiment: SEC; 50 μg on Superdex 200 HR 10/30, 0.5 ml/min, TBS/Ca^2+ (5 mM CaCl2); fractions checked by sandwich ELISA (anti-C4BP capture, anti-MAP-1 detection); settings: both partners purified

T1 sequence (P11226 21-248): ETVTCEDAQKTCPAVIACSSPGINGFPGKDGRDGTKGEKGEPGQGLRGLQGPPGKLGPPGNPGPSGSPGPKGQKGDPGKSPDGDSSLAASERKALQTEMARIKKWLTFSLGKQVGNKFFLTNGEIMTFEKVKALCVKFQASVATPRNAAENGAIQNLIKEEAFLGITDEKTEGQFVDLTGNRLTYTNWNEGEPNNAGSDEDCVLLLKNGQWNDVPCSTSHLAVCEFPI
T2 sequence (Q9BWP8 26-271): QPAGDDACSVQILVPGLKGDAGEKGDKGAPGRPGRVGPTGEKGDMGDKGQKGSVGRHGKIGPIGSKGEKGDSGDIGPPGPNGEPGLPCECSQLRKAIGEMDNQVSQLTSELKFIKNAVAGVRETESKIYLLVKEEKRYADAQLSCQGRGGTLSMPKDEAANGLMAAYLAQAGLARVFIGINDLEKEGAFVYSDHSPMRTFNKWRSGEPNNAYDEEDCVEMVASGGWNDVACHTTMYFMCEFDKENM

Kd (recombinant MBL [1]): 350 pM
Kd (recombinant CL-11): 1970 pM
IC50 of C3 deposition (ELISA; inhibitor pre-incubated on mannan-bound rMBL, then 2% MBL defect serum) (recombinant MBL [2]): 360 pM
IC50 of C4 deposition (ELISA; inhibitor pre-incubated on mannan-bound rMBL, then 2% MBL defect serum) (recombinant MBL [2]): 450 pM
IC50 of TCC deposition (ELISA; inhibitor pre-incubated on mannan-bound rMBL, then 2% MBL defect serum) (recombinant MBL [2]): 170 pM
stoichiometry N (MAP-1:C4BP^1−5 (human)): 2
Molecule: MAP-1:C4BP^1−5 (from UniProt P48740-3 20-380)

Molecule: B1
IC50 of C3 deposition (ELISA; inhibitor pre-incubated on mannan-bound rMBL, then 2% MBL defect serum) (recombinant MBL [3]): 3350 pM
IC50 of C4 deposition (ELISA; inhibitor pre-incubated on mannan-bound rMBL, then 2% MBL defect serum) (recombinant MBL [3]): 140 pM
IC50 of TCC deposition (ELISA; inhibitor pre-incubated on mannan-bound rMBL, then 2% MBL defect serum) (recombinant MBL [3]): 460 pM

Molecule: B2
Kd (recombinant MBL [1]; both partners purified): 560 pM
IC50 of C3 deposition (ELISA; inhibitor pre-incubated on mannan-bound rMBL, then 2% MBL defect serum) (recombinant MBL [3]): 7720 pM
IC50 of C4 deposition (ELISA; inhibitor pre-incubated on mannan-bound rMBL, then 2% MBL defect serum) (recombinant MBL [3]): 1200 pM
IC50 of TCC deposition (ELISA; inhibitor pre-incubated on mannan-bound rMBL, then 2% MBL defect serum) (recombinant MBL [3]): 920 pM

Molecule: B3
Kd (recombinant CL-11; both partners purified): 5490 pM
stoichiometry N (C4BP^1−5:MAP-1): 2
